For assay [1], the target named is T1, human Dectin-1 isoform A on HEK-Blue hDectin-1a cells (human, UniProt Q9BXN2 1-247).
T1 sequence: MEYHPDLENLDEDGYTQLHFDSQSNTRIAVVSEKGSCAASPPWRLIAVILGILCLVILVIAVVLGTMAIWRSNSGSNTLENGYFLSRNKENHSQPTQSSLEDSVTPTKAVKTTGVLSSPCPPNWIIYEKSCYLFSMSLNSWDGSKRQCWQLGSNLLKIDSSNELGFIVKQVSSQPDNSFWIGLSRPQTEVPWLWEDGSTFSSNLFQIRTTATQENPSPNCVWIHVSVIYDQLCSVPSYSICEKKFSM
The experiment in a line: cell-based or functional assay.

For assay [2], the target named is human Dectin-1 on HEK cells expressing hDectin-1 (human) (UniProt Q9BXN2). Briefly: flow cytometry on HEK cells expressing hDectin-1 (sheet title: Binding to hDec1 on Hek).
The target in assay [3] is T2, human Trop-2 expressed on cells (A-431, NCI-N87, SKBR3, CHO-K1-hTrop2) (human, UniProt P09758 27-323).
T2 sequence: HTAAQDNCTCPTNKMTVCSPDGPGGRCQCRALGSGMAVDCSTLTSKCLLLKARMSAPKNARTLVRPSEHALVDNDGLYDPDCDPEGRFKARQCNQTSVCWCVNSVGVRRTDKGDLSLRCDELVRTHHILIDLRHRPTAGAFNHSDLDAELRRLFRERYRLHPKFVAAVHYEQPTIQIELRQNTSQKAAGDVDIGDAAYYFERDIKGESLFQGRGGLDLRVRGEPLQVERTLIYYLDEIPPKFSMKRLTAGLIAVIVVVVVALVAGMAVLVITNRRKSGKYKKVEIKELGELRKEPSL
Briefly: flow cytometry on A431 cells expressing hTrop-2.

Assay [4] deals with T2, human Trop-2 expressed on cells (A-431, …). The experiment in a line: flow cytometry on A-431 cells, fluorescent anti-human secondary antibody. The procedure:
(§1) FIGS. 2A-2D show binding assays in which cells expressing human Trop-2 were incubated with anti-Dectin-1 x anti-Trop-2 bispecific antibodies with human IgG1 Fc (as indicated) or isotype control, and binding was measured by flow cytometry using a fluorescently labeled anti-human secondary antibody. Shown are binding of the indicated antibodies to human epidermoid carcinoma A-431 cells (FIG. 2A), human gastric carcinoma NCI-N87 cells (FIG. 2B), human breast cancer SKBR3 cells (FIG. 2C), or CHO-K1 cells expressing human Trop-2 (FIG. 2D).
(§2) Human cancer cell lines and CHO cells expressing human Trop-2 (CHO-K1-hTrop2 cells) were incubated with the anti-Dectin-1 x anti-Trop-2 bispecific antibodies, Trop-2 clones 15, 45, 76, 77, 63, 64, 65 and 123, or the hIgG1 isotype, followed by a fluorescent anti-human secondary antibody. The primary antibodies were used in an 8-point serial dose titration starting at 300 or 100 nM and diluted 1 to 3.

Assay [5] shares this target. Briefly: flow cytometry on SKBR3 cells, fluorescent anti-human secondary antibody. The procedure: as §1, §2
Assay [6] deals with T1, human Dectin-1 isoform A on HEK-Blue …. The experiment in a line: cell-based or functional assay. The source holds these as a separate data set.
Assay [7] has as its target T2, human Trop-2 expressed on cells (A-431, …). Briefly: flow cytometry on NCI-N87 cells, fluorescent anti-human secondary antibody. Here is the method:
as §1, §2

In the next assay the target is T3, Human Trop-2 ECD protein (human, UniProt P09758 27-274).
T3 construct: also called hTrop-2 ECD; not shown: HIS tag (captured on the biosensor via anti-HIS Tag)
T3 sequence: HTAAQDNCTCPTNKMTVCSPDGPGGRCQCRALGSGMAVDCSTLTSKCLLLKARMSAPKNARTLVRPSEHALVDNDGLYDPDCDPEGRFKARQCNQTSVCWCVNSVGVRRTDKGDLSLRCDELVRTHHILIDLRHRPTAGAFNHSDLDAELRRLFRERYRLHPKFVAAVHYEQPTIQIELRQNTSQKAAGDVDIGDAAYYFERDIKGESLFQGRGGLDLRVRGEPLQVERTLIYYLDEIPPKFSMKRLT
Briefly: BLI, hTrop-2 ECD captured via anti-HIS Tag, bispecific antibody in solution (monovalent). The procedure:
Monovalent binding affinity was measured by biosensor (BLI). Human Trop-2 ECD protein was captured on biosensor via anti-HIS Tag. On and off rate binding was measured against bispecific antibodies with 1 arm binding to hTrop2 at varying concentrations. On rate and off rate measurements were fitted to generated KD values.
Monovalent binding affinity of each anti-Dectin-1 x anti-Trop-2 bispecific antibody to the human Trop-2 ECD was also measured by biosensor (BLI).

In assay [8] the target is T2, human Trop-2 expressed on cells (A-431, …). The experiment in a line: cell-based or functional assay.
Assay [9] has the same target. Briefly: flow cytometry on CHO-K1-hTrop2 cells, fluorescent anti-human secondary antibody. The procedure:
as §1, §2

The target is the same in assay [10]. Briefly: flow cytometry on CHO-K1 cells expressing hTrop-2 (sheet title: Binding to Chok1 hTrop2).
The target of assay [11] is T1, human Dectin-1 isoform A on HEK-Blue …. The experiment in a line: cell-based or functional assay. The source holds these as a separate data set.

Read-outs that look alike come from different tables or passages of the source.

B1: Dectin-1 2M24.131 x Trop-2 clone A hIgG1 (bispecific antibody)
anti-Dectin-1 scFv-Fc arm: QVQLVQSGAEVKKPGASVKVSCKASGYTFTDYYMHWVRQAPGQGLEWMGWINPNEGDTNYAQKFEGRITMTRDTSISTAYMELSRLRSDDTAVYYCARNTGAYSFGYWGCGTLVTVSSGGGGSGGGGSGGGGSGGGGSDIQMTQSPSSVSASVGDRVTITCRASQGISSWLAWYQQKPGKCPKLLIYGASDLQSGVPSRFSGSGSGTDFTLTISSLQPEDFATYYCQQAYGFPFTFGPGTKVDIKEPK
anti-Trop-2 heavy chain: QVQLQQSGSELKKPGASVKVSCKASGYTFTNYGMNWVKQAPGQGLKWMGWINTYTGEPTYTDDFKGRFAFSLDTSVSTAYLQISSLKADDTAVYFCARGGFGSSYWYFDVWGQGSLVTVSS
anti-Trop-2 light chain: DIQLTQSPSSLSASVGDRVSITCKASQDVSIAVAWYQQKPGKAPKLLIYSASYRYTGVPDRFSGSGSGTDFTLTISSLQPEDFAVYYCQQHYITPLTFGAGTKVEIK
notes: member of group m8; also called 2M24.131xTrop-2 clone A hG1; scFv-format anti-Dectin-1 x anti-Trop-2 bispecific, clone A
As for B1, the “EC50 of SEAP secretion by the hDectin-1 reporter cells (hDec1 Reporter Assay; the Trop-2-expressing cell line is not named)” value in assay [1] is 1.46 nM. In [2], this molecule displayed an EC50 (read off the curve) of 4 nM. Further, the binding result in [3] was “binds”.

B2: Dectin-1 2M24.131 x Trop-2 clone B hIgG1 (bispecific antibody)
anti-Dectin-1 scFv-Fc arm: QVQLVQSGAEVKKPGASVKVSCKASGYTFTDYYMHWVRQAPGQGLEWMGWINPNEGDTNYAQKFEGRITMTRDTSISTAYMELSRLRSDDTAVYYCARNTGAYSFGYWGCGTLVTVSSGGGGSGGGGSGGGGSGGGGSDIQMTQSPSSVSASVGDRVTITCRASQGISSWLAWYQQKPGKCPKLLIYGASDLQSGVPSRFSGSGSGTDFTLTISSLQPEDFATYYCQQAYGFPFTFGPGTKVDIKEPK
anti-Trop-2 heavy chain: QVQLQESGPGLVKPSGTLSLTCAVSGGSISSSNWWSWVRQPPGKGLEWIGEIYHDGSTDYFPSLKSRVTISVDKSKNQFSLKLSSVTAADTAVYYCARDNWGFDYWGQGTLVTVSS
anti-Trop-2 light chain: DIVLTQSPGTLSLSPGERATLSCRASQSVSSSYLAWYQQKPGQAPRLLISGASSRATGIPDRFSGSGSGTDFTLTISRLEPEDFAVYYCQQYGSSHRTFGQGTKVEIK
notes: member of group m8; also called 2M24.131xTrop-2 clone B hG1; scFv-format anti-Dectin-1 x anti-Trop-2 bispecific, clone B
As for B2, in [1], the “EC50 of SEAP secretion by the hDectin-1 reporter cells (hDec1 Reporter Assay; the Trop-2-expressing cell line is not named)” value amounted to 0.91 nM. The same molecule registered an EC50 (read off the curve) in assay [2] of 3 nM. Besides, the binding result in assay [3] is recorded as “binds”.

B3: Dectin-1 2M24.131 x Trop-2 clone C hIgG1 (bispecific antibody)
anti-Dectin-1 scFv-Fc arm: QVQLVQSGAEVKKPGASVKVSCKASGYTFTDYYMHWVRQAPGQGLEWMGWINPNEGDTNYAQKFEGRITMTRDTSISTAYMELSRLRSDDTAVYYCARNTGAYSFGYWGCGTLVTVSSGGGGSGGGGSGGGGSGGGGSDIQMTQSPSSVSASVGDRVTITCRASQGISSWLAWYQQKPGKCPKLLIYGASDLQSGVPSRFSGSGSGTDFTLTISSLQPEDFATYYCQQAYGFPFTFGPGTKVDIKEPK
anti-Trop-2 heavy chain: QVQLVQSGSELKKPGASVKLSCKASGYTFTSYGMNWVRQAPGQGLEWMGWINTNTGNPTYAQGFTGRFVFSLDTSVSTAYLQISSLKAEDTAVYYCARGYNWNDGDFDYWGQGTLVTVSS
anti-Trop-2 light chain: AIQMTQSPSSLSPSVGDRVTITCRASQGIRNDLGWYQQKPGKAPKLLIFAASSLQSGVPSRFSGSGSGTDFTLTISNLQPEDFATYYCLQNYNYPLTFGGGTKVEIK
notes: member of group m8; also called 2M24.131xTrop-2 clone C hG1; scFv-format anti-Dectin-1 x anti-Trop-2 bispecific, clone C
With B3, the “EC50 of SEAP secretion by the hDectin-1 reporter cells (hDec1 Reporter Assay; the Trop-2-expressing cell line is not named)” value in [1] came to 1.49 nM. The EC50 (read off the curve) in assay [2] came to 3 nM. Further, the binding result in assay [3] is “binds”.

B4: 2M24 × Trop-2 clone A hG1 (bispecific antibody, V domains shown)
VH 1: QVQLVQSGAEVKKPGASVKVSCKSSGYTFTDYYIHWVRQAPGQGLEWMGWINPNSGDTNYAQKFQGRITMTRDTSISTAYLELSRLRSDDTAVFYCARNSGSYSFGYWGQGTLVTVSS
VL 1: DIQMTQSPSSVSASVGDRVTITCRASQGISSWLAWYQQKPGKAPKLLIFGASSLQSGVPSRFSGSGSGTDFTLTVSSLQPEDFATYYCQQAYSFPFTFGPGTKVDIE
VH 2: QVQLQQSGSELKKPGASVKVSCKASGYTFTNYGMNWVKQAPGQGLKWMGWINTYTGEPTYTDDFKGRFAFSLDTSVSTAYLQISSLKADDTAVYFCARGGFGSSYWYFDVWGQGSLVTVSS
VL 2: DIQLTQSPSSLSASVGDRVSITCKASQDVSIAVAWYQQKPGKAPKLLIYSASYRYTGVPDRFSGSGSGTDFTLTISSLQPEDFAVYYCQQHYITPLTFGAGTKVEIK
notes: also called anti-Dectin-1 x anti-Trop-2 bispecific antibody
B4 showed a concentration for a half-maximal effect (EC50) in [4] of 6.12 nM. This molecule yielded an EC50 in [5] of 18.5 nM. Further, in assay [6], the “Dectin-1 pathway activation (SEAP secretion), HEK-Blue hDectin-1a cells in the presence of A-431 cells, EC50” value worked out at 0.05 µg/mL; the “Dectin-1 pathway activation (SEAP secretion), HEK-Blue hDectin-1a cells in the presence of CHO-K1-hTrop2 cells, EC50” value stood at 0.06 µg/mL; the “Dectin-1 pathway activation (SEAP secretion), HEK-Blue hDectin-1a cells in the presence of NCI-N87 cells, EC50” value was 0.04 µg/mL; the “Dectin-1 pathway activation (SEAP secretion), HEK-Blue hDectin-1a cells in the presence of SKBR3 cells, EC50” value came out at 0.04 µg/mL. The EC50 in assay [7] is 11.7 nM. In the assay with Human Trop-2 ECD protein, this molecule displayed a Kd of 4.12 nM, a koff of 0.000891 s⁻¹ and a kon of 217000 M⁻¹ s⁻¹. In [8], the “Induction of phagocytosis in vitro of A-431 cells by human macrophages, EC50” value came to 0.31 nM; the “Induction of phagocytosis in vitro of NCI-N87 cells by human macrophages, EC50” value turned out to be 0.2 nM; the “Induction of phagocytosis in vitro of SKBR3 cells by human macrophages, EC50” value was found to be 0.507 nM. This molecule returned an EC50 in assay [9] of 3.78 nM.

B5: Dectin-1 2M24.124 x Trop-2 clone C hIgG1 (bispecific antibody)
anti-Dectin-1 heavy chain: QVQLVQSGAEVKKPGASVKVSCKASGYTFTDYYMHWVRQAPGQGLEWMGWINPNEGDTNYAQKFEGRITMTRDTSISTAYMELSRLRSDDTAVYYCARNTGAYSFGYWGCGTLVTVSS
anti-Dectin-1 light chain: DIQMTQSPSSVSASVGDRVTITCRASQGISSWLAWYQQKPGKCPKLLIYGASDLQSGVPSRFSGSGSGTDFTLTISSLQPEDFATYYCQQAYGFPFTFGPGTKVDIK
anti-Trop-2 heavy chain: QVQLVQSGSELKKPGASVKLSCKASGYTFTSYGMNWVRQAPGQGLEWMGWINTNTGNPTYAQGFTGRFVFSLDTSVSTAYLQISSLKAEDTAVYYCARGYNWNDGDFDYWGQGTLVTVSS
anti-Trop-2 light chain: AIQMTQSPSSLSPSVGDRVTITCRASQGIRNDLGWYQQKPGKAPKLLIFAASSLQSGVPSRFSGSGSGTDFTLTISNLQPEDFATYYCLQNYNYPLTFGGGTKVEIK
notes: member of group m9; also called 2M24.124xTrop-2 clone C hG1; disulfide-engineered Fab-format bispecific, clone C
Regarding B5, the “EC50 (read off the curve)” value in [10] is about 9 nM. In addition, the “EC50 of SEAP secretion by the hDectin-1 reporter cells (hDec1 Reporter Assay; the Trop-2-expressing cell line is not named)” value in assay [11] came to 0.69 nM.

The values are drawn from patent publication US20260146093A1 (DREN BIO MANAGEMENT, published 2026).
